Residue numbers refer to the chain shown, from its start.
T1: polypeptide GC3pep (human)
T1 construct: also called membrane proximal polypeptide GC3pep
T1 peptide: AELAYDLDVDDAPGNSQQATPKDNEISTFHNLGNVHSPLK

B1: F1.92.17 (antibody, human IgG1, kappa, V domains shown)
VH: EVQLQQSGPELVKPGASVKMSCKASGYTFTDYNMHWVRQSHGKSLEWIGYINPNNGDTIYNQNFKGKATLTVNKSSSTAYMELRSLTSEDSAVYYCSRTITYYYSMDYWGPGTSVTVSS
VL: QIVLTQSPALMSASPGEKVTMTCSASSSVSYMYWYQQKPRSSPKPWIYLTSNLASGVPARFSGSGSGTSYSLTISSMEAEDAATYYCQQWSSNPLTFGAGTKLELKR
notes: human-murine chimeric antibody
B2: F1.42.8 (antibody, human IgG1, kappa, V domains shown)
VH: HVQLQQPGAELVKPGASVKLSCKASGYTFTSYWMHWVRQRPGQGLEWIEMIHPNSGSTNYNEKFKSKATLTVDKSSSTAYMQLSSLTSEDSAVYYCARGNYNSSLYAMDYWGQGTSVTVSS
VL: DIQMTQTTSSLSASLGDRVTISCSASQGISNYLNWYQQKPDGTVKLLIYYASNLHSGVPSRFSGSGSGTAYSLTISNLEPEDIATYYCQQYSILPYTFGGGTKLEIKR
notes: as for B1
B3: F1.110.24 (antibody, human IgG1, kappa, V domains shown)
VH: EVKLVESGGGLVQPGGSLKLSCAASGFTFSDFYMYWVRQTPEKRLEWVAFISNGGGSTYYPDTVKGRFTISRDNVKNTLYLQMSRLKSEDTAMYYCARPDTSWFAYWGQGSLVTVSA
VL: DIQMTQTTSSLSASLGDRVTISCRASQDIDNYLNWYQQKPDGTVKVLISYTSRLHSGVPSRFSGSGSGTDYSLTISNLEQEDIATYFCQQGNTLPWTFGGGTKLEIKR
notes: as for B1
B4: F1.57.21 (antibody, human IgG1, kappa, V domains shown)
VH: QVQLQQSGAELARPGASVKLSCKASGYTFTSYGISWVKQITGQGLEWIGEIYPRSESTYYNEKFKGKATLTADKSSSTAYMELRSLTSEDSAVYFCARDYGNIYSFAYWGQGTLVTVSA
VL: DIQMTQSPASLSASVGETVTITCRTSENIYSYLAWYQQKQGKSPQLLVYNAKTLAEGVPSRFSGSGSGTQFSLKINSLQPEDFGSYYCQHHYGTPLTFGAGTKLELKR
notes: as for B1
B5: F1.83.6 (antibody, human IgG1, kappa, V domains shown)
VH: QVQLQQSGPELVKPGASVKISCKASGYAFSSSWMNWVKQRPGKGLEWIGRIYPGDGDTNYNGRFKGKATLTVDKSSSTAYMQLSSLTSEDSAVYFCARGGVFTMALDHWGQGTTLTVSS
VL: DIQMTQSPSSLSASLGGKVTITCKASQDINKYIAWYQHKPGKGPRLLIHYTSTLQPGIPSRFSGSGSGRDYSFSISNLEPEDIATYYCLQYDNLFTFGGGTKLEIKR
notes: as for B1
B6: F1.78.24 (antibody, human IgG1, kappa, V domains shown)
VH: QVQLQQSGAELVKPGASVKMSCKASGYTFTTYPIEWMKQNHGKSLEWIGNFHPYNDDTNYNVKFKGKATLTVEKSSSTVYLELSRLTSDDSALYYCARRREYYGSFDVWGTGTTVTVSS
VL: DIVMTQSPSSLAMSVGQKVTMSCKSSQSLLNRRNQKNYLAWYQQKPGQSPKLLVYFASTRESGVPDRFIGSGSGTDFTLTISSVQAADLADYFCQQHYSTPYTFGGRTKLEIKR
notes: as for B1
B7: F1.73.9 (antibody, human IgG1, kappa, V domains shown)
VH: QVQLKQSGAELVRPGASVKLSCKASGYTFTDYYINWVKQRPGQGLEWIARIYPGSGNTYYNEKFKGKATLTAEKSSSTAYMQFSSLTSEDSAVYFCACSTYYTMDYWGQGTSVTVSS
VL: QIVLTQSPAIMSASLGERVTMTCTASSGVSSSYLHWYQQKPGSSPKLWIYTTSNLASGVPARFSGSGSGTSYSLTISSMEAEDAATYYCHQYHRSPYTFGGGTKLEIKR
notes: as for B1
B8: F1.115.8 (antibody, human IgG1, kappa, V domains shown)
VH: EVQLQQSGPELVKPGASVKMSCKASGYTFTEYYMHWVKQSHGKSLEWIGYIYPNNGGNGYNQKFKGKATLTVDKSSSTAYMGLRSLTSEDSAVYYCVRGYYSNWYFDVWGTGTTVTVSS
VL: DVLMTQTPLSLPVSLGDQASISCRSSQSIVHSNGKTYLEWYLQKPGQSPKLLIYKVSNRFSGVPDRFSGSGSGTDFTLKISRVEAEDLGVYYCFQGSHVPFTFGSGTKLEIKR
notes: as for B1
B9: F1.41.17 (antibody, human IgG1, kappa, V domains shown)
VH: EVQLVESGGDSVKPGGSLKLSCAASGFTFSSYGMSWVRQTPDKRLEWVATINSGGSYTYYQDSVKGRFTISRDNAKNTLYLQMSSLKSEDTAIYYCVRHHYGSSYDYFDYWGQGTTLTVSS
VL: DIVMTQAAPSVPVMPGESVSISCRSSKSLLHSNGNTHLYWFLQRPGQSPQLLIYRMSNLASGVPDRFSGSGSGTAFTLRISRVEAEDVGVYYCMQHLEYPLTFGAGTKLELKR
notes: as for B1
B10: F4.26.1 human-murine chimeric antibody (antibody, human IgG1, kappa, V domains shown)
VH: QVQLKQSGPGLVQPSQSLSITCTVSGFSLTSYGVHWVRQSPGKGLEWLGVIWSSGNTDYNAVLISRLSIKKDDSKSQVFFKMNSPQVDDSAIYYCGRNGGWLLRGFMDFWGQGTSVTVSS
VL: DVVMTQTPLSLPVSLGDQASISCRSSQSLLHSNGNTYLHWYLQRSGQSPNLLIYKVSNRFSGVPDRFSGGGSGTDFTLKISRVEAEDLGIYFCSQSTHVPWTFGGGTKLEIKR
B11: F4.21.16 human-murine chimeric antibody (antibody, human IgG1, kappa, V domains shown)
VH: DVQLQESGPGLVKPSQSLSLTCSVTGYSITSGYYWNWIRQFPGNKLEWMGYISYDVTVNYNPSLKNRISITRDTSKNQFFLKLNSVTTEDTATYYCATITSVASMDHWGQGTSVTVSS
VL: B8 VL with V2I, S28N, S32R, K35N, I53L, V90I, V99F

Molecular target: T1, polypeptide GC3pep
Assay: ELISA, GC3pep coated, antibody 1 nM;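 further: bound antibody detected with an HRP-conjugated secondary antibody and TMB substrate, reaction stopped with HCl, after 2 h binding at 37 °C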

| Binder | OD450 nm [OD450 nm] |
| --- | --- |
| B1 | 0.05 |
| B2 | 0.05 |
| B3 | 0.04 |
| B4 | 0.05 |
| B5 | 0.05 |
| B6 | 0.05 |
| B7 | 0.05 |
| B8 | 0.08 |
| B9 | 0.05 |

Each binder was assayed against T2, human GPC3-His protein (human, UniProt P51654 25-559) (assay: ELISA, coated human GPC3, antibody 0.001 nM).
T2 construct: Bought protein; also called human GPC3 protein; not shown: His tag

| Binder | OD450 nm [OD450] |
| --- | --- |
| B10 | 0.11 |
| B11 | 0.1 |

Molecular target: T1, polypeptide GC3pep
Assay: ELISA, GC3pep coated, antibody 0.0001 nM

| Binder | OD450 nm [OD450 nm] |
| --- | --- |
| B1 | 0.05 |
| B2 | 0.05 |
| B3 | 0.04 |
| B4 | 0.05 |
| B5 | 0.04 |
| B6 | 0.05 |
| B7 | 0.04 |
| B8 | 0.05 |
| B9 | 0.05 |

Molecular target: T1, polypeptide GC3pep
Assay: ELISA, GC3pep coated, antibody 0.01 nM;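 further: bound antibody detected with an HRP-conjugated secondary antibody and TMB substrate, color reaction stopped with HCl before reading absorbance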
Experimental: (§1) The plate was sealed with a plastic film and incubated at 4° C. overnight, washed twice with PBS the next day, and a blocking solution [PBS+2% (w/w) BSA] was added for blocking at room temperature for 2 h. […] After incubation at 37° C. for 2 h, the plate was washed 3 times with PBS. A horseradish peroxidase (HRP)-labeled secondary antibody (purchased from Merck, Cat. No. AP113P) was added for incubation at 37° C. for 1 h, and the plate was washed 5 times with PBS. A TMB substrate was added at 50 μL/well for incubation at room temperature for 10 min, then a stop solution (1.0M HCl) was added at 50 μL/well.

| Binder | OD450 nm [OD450 nm] |
| --- | --- |
| B1 | 0.05 |
| B2 | 0.05 |
| B3 | 0.05 |
| B4 | 0.05 |
| B5 | 0.05 |
| B6 | 0.05 |
| B7 | 0.05 |
| B8 | 0.04 |
| B9 | 0.05 |

What follows are binders tested against T3, GPC3 endogenously expressed on HepG2 cells (UniProt P51654 25-554) (assay: FACS on HepG2 cells;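 further: flow cytometric binding of chimeric antibodies to cells, read as mean fluorescence intensity, EC50 obtained by curve fitting of the MFI data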).
T3 construct: whole, on cells
Experimental: The desired cells were expanded to a logarithmic growth phase in a T-75 cell culture flask, the medium was removed by pipetting, and the cells were washed twice with a PBS buffer, and digested with trypsin. Then a complete medium was added to stop the digestion, and the cells were blown into a single cell suspension. After counting, the cells were centrifuged, and the cell pellet was resuspended with an FACS buffer (PBS+2% fetal bovine serum) to 2×10⁶ cells/mL. The cell resuspension solution was added to a 96-well FACS reaction plate at 50 μl/well, and a chimeric antibody sample to be tested was added at 50 μl/well for incubation at 4° C. for 1 h. […] After the plate was centrifuged and washed 3 times with a PBS buffer, 100 μl of the resulting solution was assayed and analyzed by FACS (FACS Canto™, purchased from BD Biosciences). Data analysis was performed by software (FlowJo) to obtain the mean fluorescence intensity (MFI) of the cells. Then, analysis was performed by software (GraphPad Prism8), data were fitted, and EC₅₀ values were calculated.

| Binder | EC50 [nM] | Max MFI [MFI] |
| --- | --- | --- |
| B10 | 0.85 | 1600 |
| B11 | 2.31 | 1710 |

These binders were tested against T4, human GPC3 on CHO-K1-human GPC3 cells (clone CHOK1-hGPC3.2B5) (human, UniProt P51654 25-554) (assay: FACS on CHOK1-hGPC3.2B5 cells;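 further: flow cytometry binding of chimeric antibodies to the cells, read out as mean fluorescence intensity, with the half-maximal concentration derived by curve fitting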).
T4 construct: whole, on cells; Stably transfected CHO-K1 clone 2B5

| Binder | EC50 [nM] | Max MFI [MFI] |
| --- | --- | --- |
| B10 | 1.21 | 2810 |
| B11 | 3.25 | 2170 |

Molecular target: T1, polypeptide GC3pep
Assay: ELISA, GC3pep coated, antibody 0.1 nM;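 further: antibody allowed to bind the coated plate 2 h at 37 °C, then detected via HRP-conjugated secondary antibody and TMB development for 10 min, stopped with HCl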

| Binder | OD450 nm [OD450 nm] |
| --- | --- |
| B1 | 0.06 |
| B2 | 0.05 |
| B3 | 0.05 |
| B4 | 0.05 |
| B5 | 0.05 |
| B6 | 0.05 |
| B7 | 0.05 |
| B8 | 0.05 |
| B9 | 0.05 |

Molecular target: T1, polypeptide GC3pep
Assay: ELISA, GC3pep coated, antibody 0.001 nM

| Binder | OD450 nm [OD450 nm] |
| --- | --- |
| B1 | 0.05 |
| B2 | 0.05 |
| B3 | 0.05 |
| B4 | 0.05 |
| B5 | 0.05 |
| B6 | 0.05 |
| B7 | 0.05 |
| B8 | 0.05 |
| B9 | 0.05 |

What follows are binders tested against T2, human GPC3-His protein (assay: ELISA, coated human GPC3, antibody 0.0001 nM).

| Binder | OD450 nm [OD450] |
| --- | --- |
| B10 | 0.09 |
| B11 | 0.1 |

Each binder was assayed against T2, human GPC3-His protein (assay: ELISA, coated human GPC3, antibody 0.1 nM;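 further: antigen coated on 96-well plates at 1 µg/mL, antibody bound 2 h at 37 °C, detected with HRP-labeled secondary antibody and TMB substrate, acid-stopped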).
Experimental: (§2) The specific method is described as follows: The antigen protein was diluted with PBS to a final concentration of 1 μg/mL, and the diluent was added to a 96-well ELISA plate at 50 μL/well. The plate was sealed with a plastic film and incubated at 4° C. overnight, washed twice with PBS the next day, and a blocking solution [PBS+2% (w/w) BSA] was added for blocking at room temperature for 2 h. […] After incubation at 37° C. for 2 h, the plate was washed 3 times with PBS. A horseradish peroxidase (HRP)-labeled secondary antibody (purchased from Merck, Cat. No. AP113P) was added for incubation at 37° C. for 1 h, and the plate was washed 5 times with PBS. A TMB substrate was added at 50 μL/well for incubation at room temperature for 10 min, then a stop solution (1.0M HCl) was added at 50 μL/well. An ELISA plate reader (Multimode Plate Reader, EnSight, purchased from Perkin Elmer) was used to read OD_{450 nm} values, with results as shown in Table 4 to Table 6, FIG. 1A, FIG. 1B, and FIG. 1C.

| Binder | OD450 nm [OD450] |
| --- | --- |
| B10 | 0.64 |
| B11 | 0.46 |

Molecular target: T1, polypeptide GC3pep
Assay: ELISA, GC3pep coated, antibody 10 nM;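 further: antibody bound to the coated peptide for 2 h at 37 °C, detected through an HRP-conjugated secondary antibody with TMB colour development stopped by acid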
Experimental: as §1

| Binder | OD450 nm [OD450 nm] |
| --- | --- |
| B1 | 0.06 |
| B2 | 0.05 |
| B3 | 0.07 |
| B4 | 0.05 |
| B5 | 0.06 |
| B6 | 0.05 |
| B7 | 0.05 |
| B8 | 0.05 |
| B9 | 0.05 |

What follows are binders tested against T2, human GPC3-His protein (assay: ELISA, coated human GPC3, antibody 1 nM;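 further: antigen coated at 1 µg/mL on 96-well plates, antibody bound for 2 h at 37 °C, detected with HRP-labeled secondary antibody and TMB, absorbance read at 450 nm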).
Experimental: as §2

| Binder | OD450 nm [OD450] |
| --- | --- |
| B10 | 1.25 |
| B11 | 1.37 |

These binders were tested against T2, human GPC3-His protein (assay: ELISA, coated human GPC3, antibody 100 nM;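 further: antibodies bound to antigen-coated 96-well plates (1 µg/mL), 2 h at 37 °C, detected with HRP-labelled secondary antibody and TMB substrate, absorbance read at 450 nm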).
Experimental: as §2

| Binder | OD450 nm [OD450] |
| --- | --- |
| B10 | 1 |
| B11 | 0.52 |

What follows are binders tested against T2, human GPC3-His protein (assay: ELISA, coated human GPC3, antibody 10 nM;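 further: plate coated with antigen at 1 µg/mL, antibodies bound 2 h at 37 °C, detected via HRP-conjugated secondary antibody and TMB substrate, absorbance read after acid stop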).

| Binder | OD450 nm [OD450] |
| --- | --- |
| B10 | 1.43 |
| B11 | 1.14 |

Each binder was assayed against T2, human GPC3-His protein (assay: ELISA, coated human GPC3, antibody 0.01 nM;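 further: Plate-bound antigen coated at 1 µg/mL, antibody incubated 2 h at 37 °C, binding detected by HRP-conjugated secondary antibody with TMB substrate, read as absorbance at 450 nm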).

| Binder | OD450 nm [OD450] |
| --- | --- |
| B10 | 0.18 |
| B11 | 0.15 |

Molecular target: T1, polypeptide GC3pep
Assay: ELISA, GC3pep coated, antibody 100 nM;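 further: detection with an HRP-conjugated secondary antibody and TMB substrate, color reaction stopped with HCl before absorbance reading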
Experimental: as §1

| Binder | OD450 nm [OD450 nm] |
| --- | --- |
| B1 | 0.1 |
| B2 | 0.06 |
| B3 | 0.06 |
| B4 | 0.06 |
| B5 | 0.07 |
| B6 | 0.06 |
| B7 | 0.09 |
| B8 | 0.1 |
| B9 | 0.06 |

Source: patent US20260116991A1 (HAINAN SIMCERE ZAIMING PHARMACEUTICAL, published 2026)
